In the data set the test system is Escherichia coli TOP10. The data set can be described thus: shrunken log2 fold change of peptide-encoding DNA abundance (4.5 h post-induction vs induction); higher = less antimicrobial activity (less host growth inhibition). The conditions noted are these: time post-induction: 4.5 h; library: site-saturation at positions 5, 18, 19, 20.

Experimental findings from the supplement of paper PMC9112550, “Optimization of the antimicrobial peptide Bac7 by deep mutational scanning” (BMC Biology, 2022) are described below.
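Also: peptides expressed intracellularly from a pBAD plasmid library in pooled LB shake-flask culture, induced with 0.3% L-arabinose, DNA abundance read by NGS, three biological replicates, DESeq2 with apeglm shrinkage.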

With RRIRFRPPRLPRPRPRPGQDPRP, the “shrunken log2 fold change” value is -0.0452.

Take RRIRNRPPRLPRPRPRPGRAPRP: the “shrunken log2 fold change” value was found to be 0.177.

For the sequence RRIRERPPRLPRPRPRPYGRPRP, the “shrunken log2 fold change” value is -0.264. Regarding RRIRDRPPRLPRPRPRPFIWPRP, the “shrunken log2 fold change” value is 0.293. As to RRIRERPPRLPRPRPRPMGQPRP, the “shrunken log2 fold change” value was -0.0667.

Take RRIRERPPRLPRPRPRPQPDPRP: the “shrunken log2 fold change” value is -0.258.

Take RRIRVRPPRLPRPRPRPEDEPRP: the “shrunken log2 fold change” value was 0.138.

Consider RRIRPRPPRLPRPRPRPKDAPRP, for which the “shrunken log2 fold change” value turned out to be 0.164.

With RRIRDRPPRLPRPRPRPECRPRP, the “shrunken log2 fold change” value was 1.03. To RRIRHRPPRLPRPRPRPWIMPRP belongs -0.597; to RRIRQRPPRLPRPRPRPGHFPRP, -0.0162.

As to RRIRYRPPRLPRPRPRPGNDPRP, the “shrunken log2 fold change” value is -0.356.

For the sequence RRIRDRPPRLPRPRPRPWKPPRP, the “shrunken log2 fold change” value is -0.35. RRIRFRPPRLPRPRPRPADRPRP: the “shrunken log2 fold change” value is -0.0752. RRIRFRPPRLPRPRPRPYTMPRP: the “shrunken log2 fold change” value is -1.06. With RRIRYRPPRLPRPRPRPCIPPRP, the “shrunken log2 fold change” value was -0.11. With RRIRCRPPRLPRPRPRPHCEPRP, the “shrunken log2 fold change” value was -0.226. RRIRIRPPRLPRPRPRPYGQPRP: the “shrunken log2 fold change” value is -0.284. With RRIRWRPPRLPRPRPRPMKYPRP, the “shrunken log2 fold change” value is -0.311. For RRIRNRPPRLPRPRPRPCETPRP the value was -0.0224; for RRIRRRPPRLPRPRPRPREHPRP, 0.673. For the sequence RRIRERPPRLPRPRPRPPCRPRP, the “shrunken log2 fold change” value is -0.0117. Regarding RRIRDRPPRLPRPRPRPSLIPRP, the “shrunken log2 fold change” value was -0.156. Consider RRIRLRPPRLPRPRPRPRVPPRP, for which the “shrunken log2 fold change” value stood at 0.264.

With RRIRLRPPRLPRPRPRPQQWPRP, the “shrunken log2 fold change” value was -0.0673. With RRIRWRPPRLPRPRPRPRDCPRP, the “shrunken log2 fold change” value amounted to 0.226. As for RRIRMRPPRLPRPRPRPVGFPRP, the “shrunken log2 fold change” value turned out to be 0.405. As for RRIRLRPPRLPRPRPRPPDHPRP, the “shrunken log2 fold change” value came out at 0.0205. As for RRIRERPPRLPRPRPRPMDDPRP, the “shrunken log2 fold change” value is -0.015. With RRIRTRPPRLPRPRPRPQNPPRP, the “shrunken log2 fold change” value was -0.148.

With RRIRVRPPRLPRPRPRPYNAPRP, the “shrunken log2 fold change” value is -0.521. As for RRIRWRPPRLPRPRPRPKTGPRP, the “shrunken log2 fold change” value stood at 0.491. As for RRIRLRPPRLPRPRPRPQGMPRP, the “shrunken log2 fold change” value was -0.0379.

As for RRIRDRPPRLPRPRPRPNSVPRP, the “shrunken log2 fold change” value was -0.0426. For RRIRDRPPRLPRPRPRPNALPRP, the “shrunken log2 fold change” value was -0.0157.

For the sequence RRIRDRPPRLPRPRPRPHFGPRP, the “shrunken log2 fold change” value came to 0.0884. To RRIRRRPPRLPRPRPRPETNPRP belongs 0.596; to RRIRERPPRLPRPRPRPLGAPRP, -0.159; to RRIRCRPPRLPRPRPRPEAFPRP, 0.13. Turning to RRIRKRPPRLPRPRPRPLTTPRP, the “shrunken log2 fold change” value is 0.539.

Take RRIRRRPPRLPRPRPRPPPQPRP: the “shrunken log2 fold change” value came out at 1.27. Regarding RRIRWRPPRLPRPRPRPVGVPRP, the “shrunken log2 fold change” value came to 0.297.

Take RRIRYRPPRLPRPRPRPMVKPRP: the “shrunken log2 fold change” value was -0.574.

Regarding RRIRYRPPRLPRPRPRPNDYPRP, the “shrunken log2 fold change” value was -0.0969. In the case of RRIRMRPPRLPRPRPRPRLGPRP, the “shrunken log2 fold change” value amounted to 0.644. RRIRFRPPRLPRPRPRPCKSPRP: the “shrunken log2 fold change” value was -0.0582. Regarding RRIRLRPPRLPRPRPRPALYPRP, the “shrunken log2 fold change” value was determined as 0.193. Regarding RRIRFRPPRLPRPRPRPKRAPRP, the “shrunken log2 fold change” value was determined as 0.244. For RRIRCRPPRLPRPRPRPKFYPRP the value was -0.309; for RRIRARPPRLPRPRPRPMLSPRP, 0.133; for RRIRMRPPRLPRPRPRPWFMPRP, 0.363. Regarding RRIRNRPPRLPRPRPRPPKLPRP, the “shrunken log2 fold change” value was 0.0789. To RRIRLRPPRLPRPRPRPATHPRP belongs 0.253; to RRIRSRPPRLPRPRPRPPMEPRP, -0.117. In the case of RRIRWRPPRLPRPRPRPRSCPRP, the “shrunken log2 fold change” value is 0.083. For RRIRCRPPRLPRPRPRPFMHPRP, the “shrunken log2 fold change” value was -1.01. Consider RRIRARPPRLPRPRPRPSQHPRP, for which the “shrunken log2 fold change” value is -0.117. As for RRIRCRPPRLPRPRPRPKKDPRP, the “shrunken log2 fold change” value is -0.000499. As for RRIRIRPPRLPRPRPRPFIRPRP, the “shrunken log2 fold change” value was -0.358. For the sequence RRIRWRPPRLPRPRPRPGNAPRP, the “shrunken log2 fold change” value was determined as 0.146.

For RRIRDRPPRLPRPRPRPGCGPRP, the “shrunken log2 fold change” value was determined as 0.92. As to RRIRFRPPRLPRPRPRPTMDPRP, the “shrunken log2 fold change” value was -0.246. To RRIRSRPPRLPRPRPRPPLMPRP belongs 0.129. RRIRCRPPRLPRPRPRPLQVPRP: the “shrunken log2 fold change” value was -0.481.

Regarding RRIRNRPPRLPRPRPRPHCEPRP, the “shrunken log2 fold change” value was -0.778. For the sequence RRIRRRPPRLPRPRPRPQNEPRP, the “shrunken log2 fold change” value worked out at 0.0801. On to RRIRDRPPRLPRPRPRPFDTPRP, for which the “shrunken log2 fold change” value is -0.329.

Regarding RRIRCRPPRLPRPRPRPHTMPRP, the “shrunken log2 fold change” value is -0.371. In the case of RRIRSRPPRLPRPRPRPMCVPRP, the “shrunken log2 fold change” value was -0.134.

In the case of RRIRRRPPRLPRPRPRPRGAPRP, the “shrunken log2 fold change” value came to 0.8. With RRIRRRPPRLPRPRPRPAINPRP, the “shrunken log2 fold change” value was -0.0133. For RRIRIRPPRLPRPRPRPSIKPRP, the “shrunken log2 fold change” value was -0.64. RRIRLRPPRLPRPRPRPLRRPRP: the “shrunken log2 fold change” value amounted to 0.249.

Turning to RRIRERPPRLPRPRPRPFEKPRP, the “shrunken log2 fold change” value stood at 0.00177. Consider RRIRVRPPRLPRPRPRPVQSPRP, for which the “shrunken log2 fold change” value was -0.104.

Take RRIRMRPPRLPRPRPRPAASPRP: the “shrunken log2 fold change” value amounted to 1.25. As to RRIRPRPPRLPRPRPRPGTLPRP, the “shrunken log2 fold change” value was found to be 0.0426. Turning to RRIRDRPPRLPRPRPRPGNRPRP, the “shrunken log2 fold change” value was -0.0278. Regarding RRIRERPPRLPRPRPRPMSRPRP, the “shrunken log2 fold change” value is -0.00149. With RRIRPRPPRLPRPRPRPHSAPRP, the “shrunken log2 fold change” value was 0.31. For RRIRTRPPRLPRPRPRPQTPPRP the value was 0.25; for RRIRLRPPRLPRPRPRPSPIPRP, -0.0508. On to RRIRMRPPRLPRPRPRPDSAPRP, for which the “shrunken log2 fold change” value was 0.599.

As to RRIRQRPPRLPRPRPRPVVIPRP, the “shrunken log2 fold change” value was -0.292. RRIRMRPPRLPRPRPRPMQGPRP: the “shrunken log2 fold change” value is 0.4. As to RRIRWRPPRLPRPRPRPYWTPRP, the “shrunken log2 fold change” value is -0.175.

In the case of RRIRGRPPRLPRPRPRPSCDPRP, the “shrunken log2 fold change” value is 0.543. As to RRIRDRPPRLPRPRPRPFIIPRP, the “shrunken log2 fold change” value is -0.348. For RRIRVRPPRLPRPRPRPWRYPRP, the “shrunken log2 fold change” value is 0.0359. With RRIRDRPPRLPRPRPRPQHQPRP, the “shrunken log2 fold change” value is -0.108.

As to RRIRRRPPRLPRPRPRPDKAPRP, the “shrunken log2 fold change” value is -0.131. For RRIRWRPPRLPRPRPRPFNFPRP, the “shrunken log2 fold change” value was -0.272.

Consider RRIRARPPRLPRPRPRPIGNPRP, for which the “shrunken log2 fold change” value is 0.00902. As for RRIRDRPPRLPRPRPRPLWNPRP, the “shrunken log2 fold change” value was determined as 0.0619. With RRIRMRPPRLPRPRPRPQNEPRP, the “shrunken log2 fold change” value was found to be 0.155.

Regarding RRIRRRPPRLPRPRPRPILEPRP, the “shrunken log2 fold change” value was found to be 0.0696. Regarding RRIRWRPPRLPRPRPRPHHCPRP, the “shrunken log2 fold change” value was -0.239. For the sequence RRIRIRPPRLPRPRPRPHVNPRP, the “shrunken log2 fold change” value was determined as 2.48. On to RRIRSRPPRLPRPRPRPVDYPRP, for which the “shrunken log2 fold change” value was -0.268. Consider RRIRDRPPRLPRPRPRPGHDPRP, for which the “shrunken log2 fold change” value is 0.207. Regarding RRIRVRPPRLPRPRPRPWYRPRP, the “shrunken log2 fold change” value is -0.39. For RRIRKRPPRLPRPRPRPKPCPRP, the “shrunken log2 fold change” value worked out at 0.0204. RRIRSRPPRLPRPRPRPRNIPRP: the “shrunken log2 fold change” value is -0.28. To RRIRWRPPRLPRPRPRPFSPPRP belongs 0.0392; to RRIRGRPPRLPRPRPRPIWPPRP, 0.23. Regarding RRIRPRPPRLPRPRPRPRELPRP, the “shrunken log2 fold change” value was 0.39. For the sequence RRIRYRPPRLPRPRPRPDSHPRP, the “shrunken log2 fold change” value is -0.782. To RRIRGRPPRLPRPRPRPDVAPRP belongs 1.98.

Turning to RRIRTRPPRLPRPRPRPHYPPRP, the “shrunken log2 fold change” value was -0.782. Consider RRIRSRPPRLPRPRPRPQDDPRP, for which the “shrunken log2 fold change” value was -0.351. To RRIRYRPPRLPRPRPRPPNLPRP belongs -0.248; to RRIRNRPPRLPRPRPRPRAEPRP, 0.103.

Consider RRIRVRPPRLPRPRPRPYDRPRP, for which the “shrunken log2 fold change” value is -0.00895. In the case of RRIRPRPPRLPRPRPRPQTWPRP, the “shrunken log2 fold change” value is -0.254.

For RRIRGRPPRLPRPRPRPMHRPRP, the “shrunken log2 fold change” value was determined as 0.405. To RRIRDRPPRLPRPRPRPGANPRP belongs 0.19; to RRIRLRPPRLPRPRPRPRATPRP, 0.228; to RRIRQRPPRLPRPRPRPPACPRP, 0.162.

Consider RRIRYRPPRLPRPRPRPPTIPRP, for which the “shrunken log2 fold change” value is -0.424. Consider RRIRTRPPRLPRPRPRPDPAPRP, for which the “shrunken log2 fold change” value stood at 0.0522. As for RRIRIRPPRLPRPRPRPEYNPRP, the “shrunken log2 fold change” value is 0.0781. For RRIRQRPPRLPRPRPRPVHRPRP the value was -0.0635.

For the sequence RRIRDRPPRLPRPRPRPIPGPRP, the “shrunken log2 fold change” value was 0.171. With RRIRERPPRLPRPRPRPHDAPRP, the “shrunken log2 fold change” value was -0.437.

With RRIRFRPPRLPRPRPRPYDSPRP, the “shrunken log2 fold change” value is -0.924.
